Experimental data reported in patent publication US20100136573.

Biological target: Recombinant human GST-TDP-43 (N-terminal GST tag, full length), non-phosphorylated
Sequence (chain, as listed by the source): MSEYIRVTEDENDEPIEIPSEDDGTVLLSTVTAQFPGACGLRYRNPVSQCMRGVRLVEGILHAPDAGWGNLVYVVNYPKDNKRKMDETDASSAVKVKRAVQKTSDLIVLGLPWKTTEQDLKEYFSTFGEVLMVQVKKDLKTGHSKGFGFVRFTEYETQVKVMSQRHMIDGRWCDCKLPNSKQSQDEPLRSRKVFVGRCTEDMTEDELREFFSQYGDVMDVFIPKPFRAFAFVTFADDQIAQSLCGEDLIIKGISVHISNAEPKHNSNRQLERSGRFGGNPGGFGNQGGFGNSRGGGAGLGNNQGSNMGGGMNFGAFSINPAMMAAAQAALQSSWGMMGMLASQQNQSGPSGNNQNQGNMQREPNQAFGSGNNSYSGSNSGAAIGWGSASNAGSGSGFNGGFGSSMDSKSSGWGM

B1: active human recombinant caspase-3 (CHEMICON) (protein)
chain: SGISLDNSYKMDYPEMGLCIIINNKNFHKSTGMTSRSGTDVDAANLRETFRNLKYEVRNKNDLTREEIVELMRDVSKEDHSKRSSFVCVLLSHGEEGIIFGTNGPVDLKKITNFFRGDRCRSLTGKPKLFIIQACRGTELDCGIETDSGVDDDMACHKIPVEADFLYAYSTAPGYYSWRNSKDGSWFIQSLCAMLKQYADKLEFMHILTRVNRKVATEFESFSFDATFHAKKQIPCIVSMLTKELYFYH
B1 was tested, and the “in vitro cleavage, SDS-PAGE stained with Coomassie” value was “cleavage of full length TDP-43 by purified cleaved caspase-3, resulting in three distinct fragments of approximately 42, 35, and 25 kD”.
